Here are results for one substance from publication PMC11033290.

The target in the assay is Recombinant MDP1 (Mycobacterial DNA-binding protein 1) of M. tuberculosis produced in Escherichia coli (Mycobacterium tuberculosis) (UniProt P9WMK7). The experiment in a line: cross-linking; glutaraldehyde 0.2%, room temperature, 30 min; 4 µM or 8 µM protein in 150-1500 mM NaCl; SDS-PAGE on a 4-15% gradient gel.

Usually stoichiometry N stands for a count of units in the complex or per binding partner. Regarding “Recombinant MDP1 (Mycobacterial DNA-binding protein 1) of M. tuberculosis produced in Escherichia coli (from UniProt P9WMK7 3-216) (natural protein)”, the stoichiometry N is 2.
